Test results reported in patent publication US20250313602A1.
Values joined by “and” are separate entries in the source; they are usually repeats but may differ in a detail not shown here. Equal values may be shown once.

Biological target: FcRn
Assay: BLI

Kd: 2.83 nM and 1.27 nM
Substance: Herceptin
